Where two headings read alike, the source gives them in different places. Where no end group is shown, it is not given here.
How the values were obtained:
[1] = target: Paxillin LD4 peptide LD4 (Homo sapiens) (UniProt P49023); conditions: cited from earlier work
[2] = tested on: Pyk2-FAT domain; conditions: ref [36]; cited from earlier work
[3] = tested on: Pyk2-FAT; test: NMR titration / chemical shift perturbation of 15N-labeled Pyk2-FAT; type: binding, human
[4] = target: FAT domain of human Pyk2 (residues 871-1005) (Homo sapiens, UniProt Q14289); test: ITC of leupaxin LD peptides and leupaxin^1-105 binding to Pyk2-FAT
[5] = target: Pyk2-FAT-LD1 (Homo sapiens, UniProt Q14289); conditions: X-ray, 2.0 Å (4XEV); 0.5 mM protein, 2 mM leupaxin-LD4 peptide
[6] = target: Paxillin LD4 peptide LD4 (Homo sapiens) (UniProt P49023); conditions: cited from earlier work; remark: listed apart in the source
[7] = target: paxillin LD4 LD4 motif peptide (Homo sapiens) (UniProt P49023); conditions: cited from earlier work
[8] = target: paxillin LD4 LD4 motif peptide (Homo sapiens) (UniProt P49023); conditions: cited from earlier work; remark: listed apart in the source
[9] = target: T1, FAT domain of human Pyk2 (residues 871-1005) (human, UniProt Q14289 871-1005); test: ITC
[10] = target: T1, FAT domain of human Pyk2 (residues …); test: ITC; remark: listed apart in the source
[11] = target: T1, FAT domain of human Pyk2 (residues …); test: SEC-MALS
[12] = ITC, 20 mM MES, pH 6.2, 15°C, two-site sequential model, first site, duplicate
[13] = ITC, 20 mM MES, pH 6.2, 15°C, two-site sequential model, second site, duplicate

Paxillin LD4 peptide LD4 (Homo sapiens), sequence (P49023 263-282): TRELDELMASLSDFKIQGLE

Pyk2 FAT H2/H3 site (from UniProt Q14289)
Kd [1]: 8 µM

KTSAAAQLDELMAHLTEMQ [leupaxin-LD4]
Binding behaviour with Pyk2-FAT (in words) [2]: compete equally for H2/H3
CSP differences between leupaxin-LD1 and leupaxin-LD4 ([3]; 4 equivalents peptide, 15N-labeled Pyk2-FAT, 20 mM MES, pH 6.2, 305K): residues Arg 918 and Ala 951 from H2/H3 show a high magnitude of CSP
NMR site preference on Pyk2-FAT ([3]; NMR titrations, LD1 for H1/H4, LD4 for H2/H3, respectively): strong preference for H1/H4 and H2/H3 sites of Pyk2-FAT, respectively
Stoichiometry of binding (peptide to Pyk2-FAT) ([4]; ITC, 20 mM MES, pH 6.2, 15°C): 2 to 1 stoichiometry
ΔG, first site [4, 12]: -7.6 ± 0.3 kcal/mol
ΔH, first site [4, 12]: -3.0 ± 0.2 kcal/mol
−T.ΔS, first site [4, 12]: -4.6 ± 0.6 kcal/mol
ΔG, second site [4, 13]: -6.0 ± 0.1 kcal/mol
ΔH, second site [4, 13]: 0.5 ± 0.3 kcal/mol
−T.ΔS, second site [4, 13]: -6.5 ± 0.4 kcal/mol
Higher affinity at the preferred Pyk2-FAT binding site ([4]; ratio of the two site KDs (LD1 prefers H1/H4, LD4 prefers H2/H3)): ~19 fold
Binding site in crystal structure with Pyk2-FAT-LD1 [5]: binds at the H2/H3 site

Pyk2 FAT H1/H4 site (from UniProt Q14289)
Kd [6]: 46.3 µM

Pyk2 FAT (871-1005), H1/H4 site (from UniProt Q14289)
Kd [7]: 46.3 µM

Pyk2 FAT (871-1005), H2/H3 site (from UniProt Q14289)
Kd [8]: 8 µM

KTSAAAQLDELMAHLTEMQ (peptide, UniProt O60711 86-104, looked up) [leupaxin-LD4 peptide (human leupaxin; residues 86-104)]
KD first site [9]: 2.2 ± 1 µM
KD second site [9]: 33 ± 7.2 µM
dH first site [9]: -3 ± 0.2 kcal/mol
dH second site [9]: 0.5 ± 0.3 kcal/mol

B1: leupaxin^1-105 (human leupaxin; residues 1-105) (domain or fragment, UniProt O60711 1-105, looked up)
chain: MEELDALLEELERSTLQDSDEYSNPAPLPLDQHSRKETNLDETSEILSIQDNTSPLPAQLVYTTNIQELNVYSEAQEPKESPPPSKTSAAAQLDELMAHLTEMQA
Kd [10]: 0.6 ± 0.2 µM
dH [10]: -2.5 ± 0.5 kcal/mol
stoichiometry N [10]: 1

MEELDALLEELERSTLQDSD (peptide, UniProt O60711 1-20, looked up) [leupaxin-LD1 peptide (human leupaxin; residues 1-20)]
dH first site [9]: -2 ± 0.2 kcal/mol
dH second site [9]: 1.6 ± 0.3 kcal/mol

B2: leupaxin^1-151 (human leupaxin; residues 1-151) (domain or fragment, UniProt O60711 1-151, looked up)
chain: MEELDALLEELERSTLQDSDEYSNPAPLPLDQHSRKETNLDETSEILSIQDNTSPLPAQLVYTTNIQELNVYSEAQEPKESPPPSKTSAAAQLDELMAHLTEMQAKVAVRADAGKKHLPDKQDHKASLDSMLGGLEQELQDLGIATVPKGH
stoichiometry N [11]: 1

Source: publication PMC4843776 (Biochemistry, 2016)
